PMC8779334, “Synthesis, Physicochemical and Biological Study of Gallium-68- and Lutetium-177-Labeled VEGF-A165/NRP-1 Complex Inhibitors Based on Peptide A7R and Branched Peptidomimetic” (Pharmaceutics, 2022)
Where two headings read alike, the source gives them in different places. Where a SMILES comes first, the peptide text is derived from it. Where no end group is shown, it is not given here. Side-chain parts run from the residue outwards. [ ]: non-standard residue; d: D form. The star is where a group is joined. DOTA = O=C(O)CN1CCN(CC(=O)O)CCN(CC(=O)*)CCN(CC(=O)O)CC1; hArg = N=C(N)NCCCC[C@H](N)C(=O)O; Dab = NCC[C@H](N)C(=O)O; Ahx = NCCCCCC(=O)O

Key:
[1] = format: physicochemical; conditions: pH 7.4
Protocol: The lipophilicity (L) of tested radiocompounds, defined as the decimal logarithm (logP) of the partition coefficient (P) of the compound between the two immiscible phases, was determined in the system PBS solution (aqueous phase, polar phase, pH 7.4) and n-octanol (organic, non-polar phase) according to the following formula: L=logP=logAo/Aw where Ao —organic phase radioactivity; Aw —aqueous phase radioactivity. Radioactivity of both phases, resulting from the concentration of the tested radiocompound in each of them, was determined by measuring the gamma radiation with a Wizard counter in three independent experiments. Before starting the research, both liquid phases were saturated with each other to avoid errors resulting from the mutual solubility of both liquids. The partition coefficient (P) result is shown as the mean ± SD. After the end of the experiment, we performed RP-HPLC analysis of the aqueous phase to confirm the tested radioconjugate remained intact during the experiment.

[2] = format: in vitro ADME; conditions: human, serum
Protocol: Stability studies of the ^68Ga-1, ^177Lu-1, ^68Ga-2, and ^177Lu-2 radioconjugates in human serum (HS) were performed according to the following procedure: into a vial containing 900 µL of HS we added 100 µL of the tested radioconjugate and incubated the mixture at 37 °C. After the specified incubation times (10 min–4.5 h for ^68Ga-radiocompounds and 10 min–4 days for ^177Lu-radiocompounds), we withdrew the aliquots, mixed with ethanol to precipitate the proteins, and centrifuged (14,000 rpm, 5–15 min) to separate the protein compounds from the supernatant. The gamma radioactivity of the obtained precipitate and supernatant was then measured using a Wizard detector. Using the formula below, the amount of radioconjugate remaining in the supernatant (and also bound by serum protein components) was calculated. ∑ liquid phase radioactivity/∑ liquid phase radioactivity+∑ percipitate radioactivity ×100% We also analyzed the supernatant at each time by RP-HPLC in System 3 with gamma detection for ^68Ga-1 and ^177Lu-1 and System 4 with gamma detection for ^68Ga-2 and ^177Lu-2 to check whether the studied radiocompound remained unchanged during the experiment.

VEGF-A165/NRP-1 complex = conditions: read-out: IC50 (VEGF-A165 binding with NRP-1); cited from earlier work
[3] = cited from earlier work

Compound	logP ± SD [1]	IC50 (VEGF-A165/NRP-1 complex) [µM]	further results
CC(C)C[C@H](NC(=O)[C@H](Cc1c[nH]c2ccccc12)NC(=O)[C@@H](NC(=O)[C@H](C)NC(=O)CCCCCNC(=O)CN1CCN(CC(=O)O)CCN(CC(=O)O)CCN(CC(=O)O)CC1)[C@@H](C)O)C(=O)N1CCC[C@H]1C(=O)N1CCC[C@H]1C(=O)N[C@@H](CCCNC(=N)N)C(=O)O [^68Ga-1, [^68Ga]Ga-DOTA-Ahx-A7R, metal not drawn] ({DOTA-Ahx}-ATWLPPR-OH)	−3.92 ± 0.03		
N=C(N)NCCCC[C@H](N)C(=O)NCCCC[C@H](N)C(=O)N[C@@H](CCNC(=O)CCCCCNC(=O)CN1CCN(CC(=O)O)CCN(CC(=O)O)CCN(CC(=O)O)CC1)C(=O)N1CCC[C@H]1C(=O)N[C@@H](CCCNC(=N)N)C(=O)O [^68Ga-2, [^68Ga]Lys(hArg)-Dab(Ahx-DOTA-Ga)-Pro-Arg, metal not drawn] (H-K(hArg)[Dab]([Ahx-DOTA])PR-OH)	−4.57 ± 0.05		
CC(C)C[C@H](NC(=O)[C@H](Cc1c[nH]c2ccccc12)NC(=O)[C@@H](NC(=O)[C@H](C)NC(=O)CCCCCNC(=O)CN1CCN(CC(=O)O)CCN(CC(=O)O)CCN(CC(=O)O)CC1)[C@@H](C)O)C(=O)N1CCC[C@H]1C(=O)N1CCC[C@H]1C(=O)N[C@@H](CCCNC(=N)N)C(=O)O [^177Lu-1, [^177Lu]Lu-DOTA-Ahx-A7R, metal not drawn] ({DOTA-Ahx}-ATWLPPR-OH)	−3.40 ± 0.14		radioconjugate remaining in HS sample (in words) ([2]; 96 h): still visible
N=C(N)NCCCC[C@H](N)C(=O)NCCCC[C@H](N)C(=O)N[C@@H](CCNC(=O)CCCCCNC(=O)CN1CCN(CC(=O)O)CCN(CC(=O)O)CCN(CC(=O)O)CC1)C(=O)N1CCC[C@H]1C(=O)N[C@@H](CCCNC(=N)N)C(=O)O [^177Lu-2, [^177Lu]Lys(hArg)-Dab(Ahx-DOTA-Lu)-Pro-Arg, metal not drawn] (H-K(hArg)[Dab]([Ahx-DOTA])PR-OH)	−3.75 ± 0.08		radioconjugate remaining in HS sample (in words) ([2]; 24 h): only traces of radioconjugate were present
ATWLPPR [A7R]		5.9	
Lys(hArg)-Dab-Pro-Arg		0.2	stability half-life in human serum [3]: ~2 days; half-life ([3]; peptidomimetic concentration 0.9 µmol/mL, UV/VIS detection): 41 h
